According to PMC8223533:

Legend:
[1] = molecular target: SctV (SsaV) of the Salmonella enterica serovar Typhimurium SPI-2 injectisome, full-length, C-terminal 6xHis (Salmonella enterica serovar Typhimurium (strain 12023)) (UniProt P74856); assay: cryo-EM 2D classification; amphipol A8-35-stabilised SctV on UltrAufoil gold grids without support film; 2D class averages only
[2] = molecular target: SctV (SsaV) of the Salmonella enterica serovar Typhimurium SPI-2 injectisome, full-length, C-terminal 6xHis (Salmonella enterica serovar Typhimurium (strain 12023)) (UniProt P74856); assay: cryo-EM structure; DDM-solubilised full-length SctV at ~1 mg/ml on continuous carbon film; C9 symmetry imposed, refinement focused on the cytoplasmic domain; buffer pH 8.0
[3] = molecular target: SctV (SsaV) of the Salmonella enterica serovar Typhimurium SPI-2 injectisome, full-length, C-terminal 6xHis (Salmonella enterica serovar Typhimurium (strain 12023)) (UniProt P74856); assay: negative stain EM; purified SctV at about 0.05 mg/ml, 2% uranyl acetate, continuous carbon grids
[4] = molecular target: SctV (SsaV) of the Salmonella enterica serovar Typhimurium SPI-2 injectisome, full-length, C-terminal 6xHis (Salmonella enterica serovar Typhimurium (strain 12023)) (UniProt P74856); assay: SEC; Superose 6 10/300, 50 mM Tris-HCl pH 8.0, 50 mM NaCl, 0.03% DDM, 5 mM DTT; DDM-solubilised SctV

Measured: stoichiometry N

SctV (SsaV) of the Salmonella enterica serovar Typhimurium SPI-2 injectisome, full-length, C-terminal 6xHis (from UniProt P74856 1-681) (natural protein)
9: all assays above
